Changes are numbered by the printed parent chain. Names may count otherwise.
T1: Notch2NRR (Notch2 NRR domain) (human, UniProt Q04721 1423-1677, biotin on the N-terminal Avi tag (enzymatic))
T1 construct: also called NRR protein; not shown: Avi tag, N-terminal, kept
T1 sequence (looked up): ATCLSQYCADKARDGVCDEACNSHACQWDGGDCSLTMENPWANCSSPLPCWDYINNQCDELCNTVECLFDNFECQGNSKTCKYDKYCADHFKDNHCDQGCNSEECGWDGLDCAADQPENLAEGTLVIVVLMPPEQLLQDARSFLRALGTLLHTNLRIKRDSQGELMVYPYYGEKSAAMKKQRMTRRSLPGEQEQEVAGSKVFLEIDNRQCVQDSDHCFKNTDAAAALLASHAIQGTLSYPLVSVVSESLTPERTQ

T2: Notch2Long (Notch2 EGF6-EGF12) (human, UniProt Q04721 219-418, biotin on the N-terminal Avi tag (enzymatic))
T2 construct: also called N2L protein; hNotch2; not shown: Avi tag, N-terminal, kept
T2 sequence (looked up): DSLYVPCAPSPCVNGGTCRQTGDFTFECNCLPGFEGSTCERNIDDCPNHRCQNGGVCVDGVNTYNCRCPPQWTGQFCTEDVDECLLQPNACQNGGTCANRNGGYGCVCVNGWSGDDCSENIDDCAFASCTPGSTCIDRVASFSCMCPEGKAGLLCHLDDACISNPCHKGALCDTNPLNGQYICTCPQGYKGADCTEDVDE

T3: Notch2Long (Notch2 EGF6-EGF12) (human, UniProt Q04721 219-418, biotin via the N-terminal Avi tag (enzymatic biotinylation))
T3 construct: also called N2L protein; hNotch2; not shown: Avi tag, N-terminal, kept
T3 sequence (looked up): T2 sequence (looked up)

B1: N2N-EET-33 (designed binder)
chain: GCQQRRWGGWQQCKQDSDCLAGCVCGPNGFCG
B2: N2N-EET-n13 (designed binder)
chain: B1 chain with Q3G, R5K, W7M, Q12W
B3: N2N-EET-45 (designed binder)
chain: B1 chain with Q3G, R5Q, Q11P, Q12L
B4: N2N-EET-57 (designed binder)
chain: GCRPRWGGWHCKQDSDCLAGCVCGPNGFCG
B5: N2N-EET-63 (designed binder)
chain: B4 chain with R3M, W6Y
B6: N2N-EET-n3 (designed binder)
chain: B4 chain with W6F, G7K, H10T
B7: PCSK9_CnTx2 (designed binder)
chain: ECKGKGAKCSFMTRQGVQTWCCTGSCRSGKC
notes: Conotoxin-MVIIA scaffold
B8: PCSK9FL_CBD2 (designed binder)
chain: GPTQSKYGMCGGIGYSGPTVCASGTTCQVLDPYTSQCLPGAS
B9: HtrA1_CnTx83 (designed binder)
chain: ECKGKGAKCSIQWSVYPWKVCCTGSCRSGKC
notes: Conotoxin-MVIIA scaffold
B10: HtrA1_EET76 (designed binder)
chain: GCHRPWWQLWGLCKQDSDCLAGCVCGPNGFCG
B11: HtrA1_CirA65 (designed binder)
chain: WIPCISAALGCSCKNKVCYIFSKHLCGESCV
B12: HtrA1_HwTx69 (designed binder)
chain: ACKGVFDACTWKNWRQSRSRECCPNAVCSDKHKWCKWKL
notes: Huwentoxin scaffold
B13: HtrA1_CirA38 (designed binder)
chain: WIPCISAALGCSCKNKVCYFLYQICGESCV
B14: N2L-EET-03 (designed binder)
chain: GCGWTLWHCKQDSDCLAGCVCEPIWWCG
B15: N2L-EET-29 (designed binder)
chain: GCGWTLAHCKQDSDCLAGCVCQPRWVCG
B16: Her3-Fc_ChTx1 (designed binder)
chain: VSCTTSKECWSVCQRLHNTSWGEQCVTKFCKCEE
notes: Charybdotoxin scaffold
B17: Her3-Fc_ChTx2 (designed binder)
chain: VSCTTSKECWSVCQRLHNTSWLGSCMERFCKCVD
notes: Charybdotoxin scaffold
B18: Her3-Fc_CBD1 (designed binder)
chain: GPTQSWQGRCGGIGYSGPTVCASGTTCQVLTPYWSECLPGAS
notes: also called Her3_CBD1
B19: N2L.EET03.63 (designed binder)
chain: GCGWTLRHCKQDSDCLAGCVCEPKWWCG
B20: N2L.EET03.n5 (designed binder)
chain: GCGWTLMHCKQDSDCLAGCVCEPIWWCG
B21: N2L.EET03.30 (designed binder)
chain: GCGWTLKHCKQDSDCLAGCVCEPIWWCG
B22: N2L.EET03.58 (designed binder)
chain: GCGWTLWHCKQDSDCLAGCVCEPKWFCG
B23: N2L.EET03.67 (designed binder)
chain: GCGWTLWHCKQDSDCLAGCVCEPKWMCG
B24: N2L.EET03.1867 (designed binder)
chain: GCGWTLRHCKQDSDCLAGCVCEPKWMCG
B25: N2L.EET03.18 (designed binder)
chain: GCGWTLRHCKQDSDCLAGCVCEPIWWCG
B26: N2L.EET03.34 (designed binder)
chain: GCGWTLRHCKQDSDCLAGCVCKPKWTCG
B27: N2L.EET03.88 (designed binder)
chain: GCGWTLRHCKQDSDCLAGCVCEPVWWCG
B28: N2L.EET31.32.13 (designed binder)
chain: GCIKSHLWCPRDSDCLAGCVCEVWIQCG
B29: N2L.EET31.32.70 (designed binder)
chain: GCIRSHLWCPPSASCLAGCVCEVWIQCG
B30: N2L.EET31.43.75 (designed binder)
chain: GCIKSHLWCDPRKDCEAGCICEVWIQCG
B31: N2L.EET31.43.43 (designed binder)
chain: GCIRSHVWCKQDSDCEAGCICEIWIQCG
B32: N2L.EET31.43.24 (designed binder)
chain: GCIKSHLWCPKTSDCEAGCICEVWIQCG
B33: N2L.EET03.10 (designed binder)
chain: GCGWTLRHCKQDSDCLAGCVCRPIWYCG
B34: N2N-EET-45 displayed on M13 phage (designed binder)
chain: B1 chain with Q3G, R5Q, Q11P, Q12L
B35: N2N-EET-33 displayed on M13 phage (designed binder)
chain: B1 chain
B36: N2N-EET-n13 displayed on M13 phage (designed binder)
chain: B1 chain with Q3G, R5K, W7M, Q12W
B37: N2N-EET-63 displayed on M13 phage (designed binder)
chain: B4 chain with R3M, W6Y
B38: N2N-EET-n3 displayed on M13 phage (designed binder)
chain: B4 chain with W6F, G7K, H10T
B39: N2N-EET-57 displayed on M13 phage (designed binder)
chain: B4 chain
B40: Her3-Fc_ChTx1 displayed on M13 phage (designed binder)
chain: B16 chain
notes: Charybdotoxin scaffold; source: M13 phage from E. coli, culture supernatant
B41: Her3-Fc_ChTx2 displayed on M13 phage (designed binder)
chain: B17 chain
notes: as for B40
B42: Her3-Fc_CBD1 displayed on M13 phage (designed binder)
chain: B18 chain
B43: HtrA1_CnTx83 displayed on M13 phage (designed binder)
chain: B9 chain
notes: Conotoxin-MVIIA scaffold
B44: HtrA1_EET76 displayed on M13 phage (designed binder)
chain: B10 chain
B45: HtrA1_CirA65 displayed on M13 phage (designed binder)
chain: B11 chain
B46: HtrA1_CirA38 displayed on M13 phage (designed binder)
chain: B13 chain
B47: HtrA1_HwTx69 displayed on M13 phage (designed binder)
chain: B12 chain
notes: Huwentoxin scaffold
B48: N2L-EET-29 displayed on M13 phage (designed binder)
chain: GCGWTLAHCKQDSDCLAGCVCQPRWVCG

The binders below were run against T1, Notch2NRR (Notch2 NRR domain) (assay: SPR). Details: both partners purified.

Row | Binder | Kd [µM]
1 | B1 | 55.6
2 | B2 | 12
3 | B3 | 55.9
4 | B4 | 132
5 | B5 | 166
6 | B6 | 180

These binders were tested against T4, PCSK9 (human, UniProt Q8NBP7 31-692, biotin on lysines (Sulfo-NHS-LC-biotin)) (assay: SPR). Details: both partners purified.
T4 construct: also called PCSK9FL; hPCSK9 FL
T4 sequence (Q8NBP7 31-692): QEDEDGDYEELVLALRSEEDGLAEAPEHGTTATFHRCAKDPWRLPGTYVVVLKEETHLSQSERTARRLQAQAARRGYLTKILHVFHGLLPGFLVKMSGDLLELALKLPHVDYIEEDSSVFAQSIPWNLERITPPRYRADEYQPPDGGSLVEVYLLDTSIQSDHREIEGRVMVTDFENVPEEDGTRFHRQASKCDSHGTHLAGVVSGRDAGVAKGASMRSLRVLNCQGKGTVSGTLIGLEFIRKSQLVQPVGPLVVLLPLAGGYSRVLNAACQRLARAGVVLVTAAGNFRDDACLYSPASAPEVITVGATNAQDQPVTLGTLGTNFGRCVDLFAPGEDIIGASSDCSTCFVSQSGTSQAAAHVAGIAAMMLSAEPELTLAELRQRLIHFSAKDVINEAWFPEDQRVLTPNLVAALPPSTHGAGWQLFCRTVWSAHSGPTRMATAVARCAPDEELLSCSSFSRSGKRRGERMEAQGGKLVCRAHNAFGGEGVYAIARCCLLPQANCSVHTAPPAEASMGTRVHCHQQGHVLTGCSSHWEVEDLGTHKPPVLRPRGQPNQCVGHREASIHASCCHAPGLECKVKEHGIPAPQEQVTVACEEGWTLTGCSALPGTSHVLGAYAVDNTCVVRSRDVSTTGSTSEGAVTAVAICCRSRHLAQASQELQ

Row | Binder | Kd [µM]
7 | B7 | 2.8
8 | B8 | 3.6

What follows are binders tested against T5, HtrA1 (human, UniProt Q92743 23-480, biotin on lysines (Sulfo-NHS-LC-biotin) for panning and SPR) (assay: SPR). Details: both partners purified.
T5 construct: also called HtrA1 FL; human full-length HtrA1
T5 sequence (Q92743 23-480): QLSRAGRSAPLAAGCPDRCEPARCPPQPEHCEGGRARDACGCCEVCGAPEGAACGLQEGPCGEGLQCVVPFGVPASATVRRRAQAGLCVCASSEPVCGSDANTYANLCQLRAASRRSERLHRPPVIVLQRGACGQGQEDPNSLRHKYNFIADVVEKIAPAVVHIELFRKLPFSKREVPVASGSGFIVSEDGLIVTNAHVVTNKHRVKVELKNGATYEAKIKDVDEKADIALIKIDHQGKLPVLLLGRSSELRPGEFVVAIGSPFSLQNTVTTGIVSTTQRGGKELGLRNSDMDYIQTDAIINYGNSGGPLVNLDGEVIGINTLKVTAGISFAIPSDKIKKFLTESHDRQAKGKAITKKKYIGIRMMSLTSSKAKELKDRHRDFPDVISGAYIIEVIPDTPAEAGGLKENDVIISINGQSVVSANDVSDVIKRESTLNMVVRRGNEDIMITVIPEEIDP

Row | Binder | Kd [µM]
9 | B9 | 6.4
10 | B10 | 9.5
11 | B11 | 2.7
12 | B12 | 3.7
13 | B13 | 2.5

What follows are binders tested against T2, Notch2Long (Notch2 EGF6-EGF12) (assay: SPR). Details: both partners purified.

Row | Binder | Kd [µM]
14 | B14 | 43.7
15 | B15 | 102

These binders were tested against Her3-Fc Avi-tag (UniProt P21860 20-643) (assay: SPR). Details: both partners purified.
Her3-Fc Avi-tag, sequence (P21860 20-643): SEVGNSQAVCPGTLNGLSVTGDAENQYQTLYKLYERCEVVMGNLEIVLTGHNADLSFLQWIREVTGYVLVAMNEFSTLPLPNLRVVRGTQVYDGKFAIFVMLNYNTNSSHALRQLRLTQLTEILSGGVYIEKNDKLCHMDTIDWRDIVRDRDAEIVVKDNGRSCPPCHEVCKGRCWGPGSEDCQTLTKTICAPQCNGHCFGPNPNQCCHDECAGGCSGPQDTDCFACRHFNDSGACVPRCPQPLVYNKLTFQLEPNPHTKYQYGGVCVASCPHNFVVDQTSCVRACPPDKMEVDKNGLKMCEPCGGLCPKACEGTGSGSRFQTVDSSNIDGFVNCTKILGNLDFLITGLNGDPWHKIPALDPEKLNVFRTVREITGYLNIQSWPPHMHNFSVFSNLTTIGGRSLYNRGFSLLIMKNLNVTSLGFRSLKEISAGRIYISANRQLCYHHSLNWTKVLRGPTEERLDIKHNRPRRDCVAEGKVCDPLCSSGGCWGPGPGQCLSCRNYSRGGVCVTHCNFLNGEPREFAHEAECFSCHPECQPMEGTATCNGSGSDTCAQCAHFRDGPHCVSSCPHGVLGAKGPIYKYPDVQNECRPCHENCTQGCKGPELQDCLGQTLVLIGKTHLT

Row | Binder | Kd [µM]
16 | B16 | > 10
17 | B17 | 1.5
18 | B18 | 27

These binders were tested against T3, Notch2Long (Notch2 EGF6-EGF12) (assay: SPR). Details: both partners purified.

Row | Binder | Kd [µM]
19 | B19 | 44.8
20 | B20 | 13.2
21 | B21 | 13.1
22 | B22 | 8.2
23 | B23 | 15.4
24 | B24 | 9.5
25 | B25 | 8.9
26 | B26 | 8.6
27 | B27 | 8.8

Molecular target: T2, Notch2Long (Notch2 EGF6-EGF12)
Experiment: SPR
Details: both partners purified
Remark: another data set of the same source

Row | Binder | Kd [µM]
28 | B28 | 35
29 | B29 | 1
30 | B30 | 0.41
31 | B31 | 3.5
32 | B32 | 3.5
33 | B33 | 4.5

The binders below were run against T1, Notch2NRR (Notch2 NRR domain) (assay: ELISA). Details: one partner purified.

Row | Binder | ELISA | s/n Ratio
34 | B34 | 3.5 | 14.9
35 | B35 | 3.6 | 28.9
36 | B36 | 3.4 | 53.9
37 | B37 | 1.5 | 21.3
38 | B38 | 2.1 | 33.1
39 | B39 | 3.8 | 30.9

What follows are binders tested against Her3-Fc (UniProt P21860 20-643) (assay: ELISA). Details: one partner purified.
Her3-Fc, sequence (P21860 20-643): as above

Row | Binder | ELISA | s/n Ratio
40 | B40 | 1.7 | 22.6
41 | B41 | 1.6 | 24.3
42 | B42 | 1.7 | 20.2

The binders below were run against T5, HtrA1 (assay: ELISA). Details: one partner purified.

Row | Binder | ELISA | s/n Ratio
43 | B43 | 1.1 | 16.1
44 | B44 | 1 | 13.7
45 | B45 | 2.2 | 33.9
46 | B46 | 2.1 | 31.9
47 | B47 | 0.9 | 9.6

What follows are binders tested against T2, Notch2Long (Notch2 EGF6-EGF12) (assay: ELISA). Details: one partner purified.

Row | Binder | ELISA | s/n Ratio
48 | B48 | 0.6 | 4.4
